This data set relates to BoHV-1 whole virus (purified virion) (Bovine herpesvirus 1 (BK1952, CVCC; Methods also says field isolate from China)). Briefly: ELONA.

Consider one sequence from paper PMC5603541.

Usually Kd stands for the constant that tells how readily two partners part at equilibrium. The low end stands for tighter binding, the high end for weaker binding. “GCTGCAATACTCATGGACAGGGCGGCGGGGTGGGGTGGGCGGTTTGATTCCCATGGGTGCGTCTGGAGTACGACCCTGAA [IBRV-A4]” had a Kd of 3.52 nM.
